The results in this text go back to PMC11079029, “Intramolecular autoinhibition regulates the selectivity of PRPF40A tandem WW domains for proline-rich motifs” (Nature Communications, 2024).

“And” between values parts separate entries of the source, which are not always exact repeats. Equal values may be shown once.

In general, stoichiometry N refers to a count of units in the complex or per binding partner.

The chains are these.
B1: GB1-SF1 Pro CD (residues 539-639) (domain or fragment, UniProt Q15637 539-639, looked up)
chain: GSIPPWQQQQAAAAASPGAPQMQGNPTMVPLPPGVQPPLPPGAPPPPPPPPPGSAGMMYAPPPPPPPPMDPSNFVTMMGMGVAGMPPFGMPPAPPPPPPQN
notes: SF1 (splicing factor 1) residues 539-639; pET24 vector with 6xHis, GB1 and TEV site as N-terminal cassette, not cleaved; source: E. coli BL21(DE3), purified (Ni-NTA, SEC); not shown: GB1, N-terminal, kept
B2: GB1-SF1 Pro BC (residues 468-594) (domain or fragment, UniProt Q15637 468-594, looked up)
chain: GMMPPPPMGMMPPPPPPPSGQPPPPPSGPLPPWQQQQQQPPPPPPPSSSMASSTPLPWQQNTTTTTTSAGTGSIPPWQQQQAAAAASPGAPQMQGNPTMVPLPPGVQPPLPPGAPPPPPPPPPGSAG
notes: SF1 (splicing factor 1) residues 468-594; pET24 vector with 6xHis, GB1 and TEV site as N-terminal cassette, not cleaved; source: E. coli BL21(DE3), purified (Ni-NTA, SEC); not shown: GB1, N-terminal, kept
B3: GB1-SF1 Pro ABCD (residues 410-639) (domain or fragment, UniProt Q15637 410-639, looked up)
chain: GHPMQHNPNGPPPPWMQPPPPPMNQGPHPPGHHGPPPMDQYLGSTPVGSGVYRLHQGKGMMPPPPMGMMPPPPPPPSGQPPPPPSGPLPPWQQQQQQPPPPPPPSSSMASSTPLPWQQNTTTTTTSAGTGSIPPWQQQQAAAAASPGAPQMQGNPTMVPLPPGVQPPLPPGAPPPPPPPPPGSAGMMYAPPPPPPPPMDPSNFVTMMGMGVAGMPPFGMPPAPPPPPPQN
notes: SF1 (splicing factor 1) residues 410-639, the complete proline-rich C-terminal region; pET24 vector with 6xHis, GB1 and TEV site as N-terminal cassette, not cleaved; also called complete C-terminal region of SF1; source: E. coli BL21(DE3), purified (Ni-NTA, SEC); not shown: GB1, N-terminal, kept
B4: GB1-SF3A1 Middle Pro (residues 364-413) (domain or fragment, UniProt Q15459 364-413, looked up)
chain: EGQKVPPPPETPMPPPLPPTPDQVIVRKDYDPKASKPLPPAPAPDEYLVS
notes: SF3A1 residues 364-413, proline-rich region with a PPLP motif; pET24 vector with 6xHis, GB1 and TEV site as N-terminal cassette, not cleaved; also called SF3A1 region (364-413); source: E. coli BL21(DE3), purified (Ni-NTA, SEC); not shown: GB1, N-terminal, kept
B5: GB1-SF1 Pro D (residues 594-639) (domain or fragment, UniProt Q15637 594-639, looked up)
chain: GMMYAPPPPPPPPMDPSNFVTMMGMGVAGMPPFGMPPAPPPPPPQN
notes: SF1 (splicing factor 1) residues 594-639, the very C-terminal region; pET24 vector with 6xHis, GB1 and TEV site as N-terminal cassette, not cleaved; source: E. coli BL21(DE3), purified (Ni-NTA, SEC); not shown: GB1, N-terminal, kept
B6: GB1-SF3A1 C-ter Pro (residues 552-683) (domain or fragment, UniProt Q15459 552-683, looked up)
chain: EIPQQPPPPSSATNIPSSAPPITSVPRPPTMPPPVRTTVVSAVPVMPRPPMASVVRLPPGSVIAPMPPIIHAPRINVVPMPPSAPPIMAPRPPPMIVPTAFVPAPPVAPVPAPAPMPPVHPPPPMEDEPTSK
notes: pET24 vector with 6xHis, GB1 and TEV site as N-terminal cassette, not cleaved; source: E. coli BL21(DE3), purified (Ni-NTA, SEC); not shown: GB1, N-terminal, kept
B7: GB1-SF1 Pro A (residues 410-468) (domain or fragment, UniProt Q15637 410-468, looked up)
chain: GHPMQHNPNGPPPPWMQPPPPPMNQGPHPPGHHGPPPMDQYLGSTPVGSGVYRLHQGKG
notes: SF1 (splicing factor 1) residues 410-468 of the proline-rich C-terminal region; pET24 vector with 6xHis, GB1 and TEV site as N-terminal cassette, not cleaved; source: E. coli BL21(DE3), purified (Ni-NTA, SEC); not shown: GB1, N-terminal, kept
B8: GB1-SF1 Pro C (residues 539-594) (domain or fragment, UniProt Q15637 539-594, looked up)
chain: GSIPPWQQQQAAAAASPGAPQMQGNPTMVPLPPGVQPPLPPGAPPPPPPPPPGSAG
notes: SF1 (splicing factor 1) residues 539-594; pET24 vector with 6xHis, GB1 and TEV site as N-terminal cassette, not cleaved; source: E. coli BL21(DE3), purified (Ni-NTA, SEC); not shown: GB1, N-terminal, kept
B9: GB1-SF1 Pro B (residues 468-539) (domain or fragment, UniProt Q15637 468-539, looked up)
chain: GMMPPPPMGMMPPPPPPPSGQPPPPPSGPLPPWQQQQQQPPPPPPPSSSMASSTPLPWQQNTTTTTTSAGTG
notes: SF1 (splicing factor 1) residues 468-539 of the proline-rich C-terminal region; pET24 vector with 6xHis, GB1 and TEV site as N-terminal cassette, not cleaved; source: E. coli BL21(DE3), purified (Ni-NTA, SEC); not shown: GB1, N-terminal, kept
B10: GB1-SF1 Pro BCD (residues 468-639) (domain or fragment, UniProt Q15637 468-639, looked up)
chain: GMMPPPPMGMMPPPPPPPSGQPPPPPSGPLPPWQQQQQQPPPPPPPSSSMASSTPLPWQQNTTTTTTSAGTGSIPPWQQQQAAAAASPGAPQMQGNPTMVPLPPGVQPPLPPGAPPPPPPPPPGSAGMMYAPPPPPPPPMDPSNFVTMMGMGVAGMPPFGMPPAPPPPPPQN
notes: SF1 (splicing factor 1) residues 468-639; pET24 vector with 6xHis, GB1 and TEV site as N-terminal cassette, not cleaved; source: E. coli BL21(DE3), purified (Ni-NTA, SEC); not shown: GB1, N-terminal, kept
B11: GB1-polyproline peptide P25 (peptide)
chain: PPPPPPPPPPPPPPPPPPPPPPPPP
B12: GB1-SF1 16-mer peptide 565-580 (peptide)
chain: TMVPLPPGVQPPLPPG
B13: GB1-polyproline peptide P29 (peptide)
chain: PPPPPPPPPPPPPPPPPPPPPPPPPPPPP
B14: GB1-polyproline peptide P13 (peptide)
chain: PPPPPPPPPPPPP
B15: GB1-SF1 Pro A (residues 410-468) (domain or fragment, UniProt Q15637 410-468, looked up)
chain: GHPMQHNPNGPPPPWMQPPPPPMNQGPHPPGHHGPPPMDQYLGSTPVGSGVYRLHQGKG
notes: splicing factor 1 (SF1), residues 410-468 of the proline-rich C-terminal region; His6-GB1-TEV site cassette of the pET24 vector, not cleaved; source: E. coli BL21(DE3), purified (Ni-NTA, SEC); not shown: GB1, N-terminal, kept

In the first experiment the target is T1, PRPF40A WW12 (tandem WW domains, residues 141-236) (human, UniProt O75400 141-236).
T1 construct: pETM11 vector (NcoI/KpnI); also called PRPF40A WW tandem; isolated WW domains; source: E. coli BL21(DE3), purified (Ni-NTA, TEV cleavage, reverse Ni-NTA, SEC); not shown: His6, N-terminal, cleaved
As to the kind of experiment: ITC; MicroCal PEAQ-ITC, 25 °C, 20 mM sodium phosphate pH 6.5, 100 mM NaCl; GB1-tagged SF1/SF3A1 constructs in the syringe, WW12 in the cell (N sites <1: more than one WW tandem on one construct); one-site model; apparent. The conditions noted are these: both partners purified. (Isothermal titration calorimetry measures the heat released or taken up as one component is titrated into another.)
Consider B1, for which the “stoichiometry N” value is 0.42 and 0.38 and 0.36 and 0.39.
Consider B2, for which the “stoichiometry N” value was 0.5 and 0.6 and 0.53.
For the molecule B3, the “stoichiometry N” value was 0.33 and 0.23 and 0.28.
As to B4, the Kd was 8.1 µM and 9.6 µM and 8.86 µM; the “stoichiometry N” value was 0.7 and 0.42 and 0.56.
Take B5: the Kd is 10.3 µM and 9.94 µM and 10.1 µM; the “stoichiometry N” value is 0.84 and 0.9 and 0.87.
On to B6, for which the “stoichiometry N” value was 0.25 and 0.28 and 0.27.
On to B7, for which the Kd is 24.8 µM and 25.4 µM and 25.1 µM; the “stoichiometry N” value is 0.97 and 1 and 0.99.
As for B8, the Kd was 2.1 µM and 1.94 µM and 2.02 µM; the “stoichiometry N” value was 0.87 and 0.88.
In the case of B9, the Kd is 15.7 µM and 16.1 µM and 20.6 µM; the “stoichiometry N” value is 1.3 and 1.15.
Take B10: the “stoichiometry N” value is 0.3 and 0.26 and 0.28.

In another experiment the target is T2, PRPF40A WW12 (tandem WW domains, residues 141-236) (human, UniProt O75400 141-236).
T2 construct: A few vector residues probably remain at the N-terminus after TEV cleavage (pETM11, NcoI site); 15N-labelled in the NMR experiments; also called PRPF40A WW tandem; WW12 wt; source: E. coli BL21(DE3), purified (Ni-NTA, TEV digestion, reverse Ni-NTA, SEC); not shown: His6, N-terminal, cleaved
Description: ITC; GB1-peptide or GB1-SF1 construct in the cell, PRPF40A WW12 in the syringe (as shown in Supplementary Figures 7 and 16A); 25 °C, 20 mM sodium phosphate pH 6.5, 100 mM NaCl; one-site binding model; at least duplicates; affinities apparent. Conditions: both partners purified.
As to B11, the Kd came to 10.8 ± 1.8 µM.
As for B12, the Kd amounted to 30.4 ± 6.7 µM.
In the case of B13, the Kd stood at 9.15 ± 1.85 µM.
On the same count and under the same terms, the result for B14 reads 8.54 ± 1.46 µM; that for B15, 25.1 ± 6.5 µM.
